Laboratory results: patent publication US20210292396A1

Tests used:
Assay in all cases: cell-based or functional assay
[1] = target: Env of HIV isolate CH038.12 (clade BC) (HIV)
[2] = target: HIV Env of isolate 26191-2.48 (HIV)
[3] = target: Env of HIV isolate 0013095-2.11 (clade C) (HIV)
[4] = target: Env of HIV isolate CAP244.D3 (clade C) (HIV)
[5] = target: Env of HIV isolate 3415.v1.c1 (clade A) (HIV)
[6] = target: Env of HIV isolate 96ZM651.02 (clade C) (HIV)
[7] = target: Env of HIV isolate SC422.8 (clade B) (HIV)
[8] = target: HIV Env of isolate ZM214.15 (HIV)
[9] = target: HIV Env of isolate TZBD.02 (HIV)
[10] = target: HIV Env of isolate ZA012.29 (HIV)
[11] = target: Env of HIV isolate WITO.33 (clade B) (HIV)
[12] = target: HIV Env of isolate CNE31 (HIV)
[13] = target: Env of HIV isolate 001428-2.42 (clade C) (HIV)
[14] = target: Env of HIV isolate 16055-2.3 (clade C) (HIV)
[15] = target: Env of HIV isolate TH023.6 (clade AE) (HIV)
[16] = target: HIV Env of isolate CAP210.E8 (HIV)
[17] = target: Env of HIV isolate CNE21 (clade BC) (HIV)
[18] = target: Env of HIV isolate M02138 (clade AE) (HIV)
[19] = target: HIV Env of isolate CNE53 (HIV)
[20] = target: HIV Env of isolate DU151.02 (HIV)
[21] = target: HIV Env of isolate CNE7 (HIV)
[22] = target: HIV Env of isolate 3326.v4.c3 (HIV)
[23] = target: Env of HIV isolate CNE55 (clade AE) (HIV)
[24] = target: Env of HIV isolate 26191-2.48 (clade C) (HIV)
[25] = target: Env of HIV isolate MN.3 (clade B) (HIV)
[26] = target: Env of HIV isolate CH119.10 (clade BC) (HIV)
[27] = target: HIV Env of isolate CH070.1 (HIV)
[28] = target: HIV Env of isolate 0013095-2.11 (HIV)
[29] = target: 208-member cross-clade virus panel
[30] = target: Env of HIV isolate 3589.v1.c4 (clade AC) (HIV)
[31] = target: Env of HIV isolate C1080.c3 (clade AE) (HIV)
[32] = target: Env of HIV isolate YU2.DG (clade B) (HIV)
[33] = target: HIV Env of isolate 6405.v4.c34 (HIV)
[34] = target: Env of HIV isolate A03349M1.vrc4a (clade D) (HIV)
[35] = target: Env of HIV isolate BJOX009000.02.4 (clade AE) (HIV)
[36] = target: Env of HIV isolate RHPA.7 (clade B) (HIV)
[37] = target: HIV Env of isolate X1193.c1 (HIV)
[38] = target: HIV Env of isolate ZM197.7 (HIV)
[39] = target: Env of HIV isolate 6322.v4.c1 (clade C) (HIV)
[40] = target: Env of HIV isolate 6644.v2.c33 (clade C) (HIV)
[41] = target: Env of HIV isolate 0260.v5.c36 (clade A) (HIV)
[42] = target: Env of HIV isolate BR07.DG (clade B) (HIV)
[43] = target: Env of HIV isolate Q461.e2 (clade AD) (HIV)

B1: ePGT121.18 (ePGT121.18.H1 VH and ePGT121.17.L1 VL) (antibody, V domains shown)
VH: QMQLQESGPGLVKPGETLSLTCSVSGASISSSYWSWLRETPGKGLEWIGYTHHSGDTNYAPSLKSRVHLGLHPSKNQVSLSLTSVTAADTAVYYCARTLHGRRIYGVVAFNEYYTYFYWPTWGKGTQVTVSS
VL: SDISVAPGETVRITCGGESIGSRAVQWYQHRPGQAPRLIIYNNQDRPPGIPERFSGSPDIDFGTTATLTISNVEAGDEATYYCHIWDSRRPTNWELGPGTTLTVL
IC50, pseudovirus neutralization [1]: 0.8 ng/mL | IC80, pseudovirus neutralization (M1) [2]: 8 ng/mL | IC80, pseudovirus neutralization (M2) [2]: 13 ng/mL | IC50, pseudovirus neutralization [3]: 537 ng/mL | IC50, pseudovirus neutralization [4]: 21200 ng/mL | IC50, pseudovirus neutralization [5]: 6 ng/mL | IC50, pseudovirus neutralization [6]: 0.7 ng/mL | IC50, pseudovirus neutralization [7]: 5 ng/mL | IC80, pseudovirus neutralization (M1) [8]: 53 ng/mL | IC80, pseudovirus neutralization (M2) [8]: 67 ng/mL | IC80, pseudovirus neutralization (M1) [9]: 4 ng/mL | IC80, pseudovirus neutralization (M2) [9]: 6 ng/mL | IC80, pseudovirus neutralization (M1) [10]: 6 ng/mL | IC80, pseudovirus neutralization (M2) [10]: 7 ng/mL | IC50, pseudovirus neutralization [11]: 4 ng/mL | IC80, pseudovirus neutralization (M1) [12]: 49 ng/mL | IC80, pseudovirus neutralization (M2) [12]: 78 ng/mL | IC50, pseudovirus neutralization [13]: 1 ng/mL | IC50, pseudovirus neutralization [14]: 11 ng/mL | IC50, pseudovirus neutralization [15]: > 50000 ng/mL | IC80, pseudovirus neutralization (M1) [16]: 78 ng/mL | IC80, pseudovirus neutralization (M2) [16]: 106 ng/mL | IC50, pseudovirus neutralization [17]: 0.9 ng/mL | IC50, pseudovirus neutralization [18]: > 50000 ng/mL | IC80, pseudovirus neutralization (M1) [19]: 6 ng/mL | IC80, pseudovirus neutralization (M2) [19]: 9 ng/mL | IC80, pseudovirus neutralization (M1) [20]: 3 ng/mL | IC80, pseudovirus neutralization (M2) [20]: 3 ng/mL | IC80, pseudovirus neutralization (M1) [21]: 8 ng/mL | IC80, pseudovirus neutralization (M2) [21]: 7 ng/mL | IC80, pseudovirus neutralization (M1) [22]: 2150 ng/mL | IC80, pseudovirus neutralization (M2) [22]: 6860 ng/mL | IC50, pseudovirus neutralization [23]: > 50000 ng/mL | IC50, pseudovirus neutralization [24]: 3 ng/mL | IC50, pseudovirus neutralization [25]: 2 ng/mL | IC50, pseudovirus neutralization [26]: 4 ng/mL | IC80, pseudovirus neutralization (M1) [27]: 2 ng/mL | IC80, pseudovirus neutralization (M2) [27]: 2 ng/mL | IC80, pseudovirus neutralization (M1) [28]: 4210 ng/mL | IC80, pseudovirus neutralization (M2) [28]: 2160 ng/mL | % vs Neutralized, IC50 < 0.01 ug/ml [29]: 56% | % vs Neutralized, IC50 < 0.1 ug/ml [29]: 66% | % vs Neutralized, IC50 < 1.0 ug/ml [29]: 71% | % vs Neutralized, IC50 < 10 ug/ml [29]: 76% | % vs Neutralized, IC50 < 50 ug/ml [29]: 78% | % vs Neutralized, IC80 < 0.01 ug/ml (M1) [29]: 43.8% | % vs Neutralized, IC80 < 0.01 ug/ml (M2) [29]: 38.5% | % vs Neutralized, IC80 < 0.1 ug/ml (M1) [29]: 60.6% | % vs Neutralized, IC80 < 0.1 ug/ml (M2) [29]: 59.6% | % vs Neutralized, IC80 < 1.0 ug/ml (M1) [29]: 65.9% | % vs Neutralized, IC80 < 1.0 ug/ml (M2) [29]: 65.9% | % vs Neutralized, IC80 < 10 ug/ml (M1) [29]: 70.7% | % vs Neutralized, IC80 < 10 ug/ml (M2) [29]: 69.7% | % vs Neutralized, IC80 < 50 ug/ml (M1) [29]: 73.1% | % vs Neutralized, IC80 < 50 ug/ml (M2) [29]: 72.6% | Geometric Mean (IC50) [29]: 8.1 ng/mL | Geometric Mean IC80 (M1) [29]: 17.7 ng/mL | Geometric Mean IC80 (M2) [29]: 20.2 ng/mL | Median IC50 [29]: 3 ng/mL | Median IC80 (M1) [29]: 7 ng/mL | Median IC80 (M2) [29]: 8 ng/mL | Total VS Neutralized, IC50 < 0.01 ug/ml (viruses of 208) [29]: 116 | Total VS Neutralized, IC50 < 0.1 ug/ml (viruses of 208) [29]: 137 | Total VS Neutralized, IC50 < 1.0 ug/ml (viruses of 208) [29]: 148 | Total VS Neutralized, IC50 < 10 ug/ml (viruses of 208) [29]: 159 | Total VS Neutralized, IC50 < 50 ug/ml (viruses of 208) [29]: 162 | Total VS Neutralized, IC80 < 0.01 ug/ml (M1) (viruses of 208) [29]: 91 | Total VS Neutralized, IC80 < 0.01 ug/ml (M2) (viruses of 208) [29]: 80 | Total VS Neutralized, IC80 < 0.1 ug/ml (M1) (viruses of 208) [29]: 126 | Total VS Neutralized, IC80 < 0.1 ug/ml (M2) (viruses of 208) [29]: 124 | Total VS Neutralized, IC80 < 1.0 ug/ml (M1) (viruses of 208) [29]: 137 | Total VS Neutralized, IC80 < 1.0 ug/ml (M2) (viruses of 208) [29]: 137 | Total VS Neutralized, IC80 < 10 ug/ml (M1) (viruses of 208) [29]: 147 | Total VS Neutralized, IC80 < 10 ug/ml (M2) (viruses of 208) [29]: 145 | Total VS Neutralized, IC80 < 50 ug/ml (M1) (viruses of 208) [29]: 152 | Total VS Neutralized, IC80 < 50 ug/ml (M2) (viruses of 208) [29]: 151 | IC50, pseudovirus neutralization [30]: 252 ng/mL | IC50, pseudovirus neutralization [31]: > 50000 ng/mL | IC50, pseudovirus neutralization [32]: 3 ng/mL | IC80, pseudovirus neutralization (M1) [33]: 4 ng/mL | IC80, pseudovirus neutralization (M2) [33]: 5 ng/mL | IC50, pseudovirus neutralization [34]: 2 ng/mL | IC50, pseudovirus neutralization [35]: 42 ng/mL | IC50, pseudovirus neutralization [36]: 2 ng/mL | IC80, pseudovirus neutralization (M1) [37]: 4 ng/mL | IC80, pseudovirus neutralization (M2) [37]: 5 ng/mL | IC80, pseudovirus neutralization (M1) [38]: > 50000 ng/mL | IC80, pseudovirus neutralization (M2) [38]: > 50000 ng/mL | IC50, pseudovirus neutralization [39]: > 50000 ng/mL | IC50, pseudovirus neutralization [40]: 2 ng/mL | IC50, pseudovirus neutralization [41]: 2 ng/mL | IC50, pseudovirus neutralization [42]: 5 ng/mL | IC50, pseudovirus neutralization [43]: > 50000 ng/mL
